Reference: US10047345B2, “Culturing of mesenchymal stem cells with FGF4 and nicotinamide” (Gamida-Cell Ltd., priority 2012, dated 2018)
Entries after “also recorded” stand apart in the source; their conditions may differ.

Key:
MSCs = conditions: cited from earlier work
mesenchymal stem cells [1] = assay: Cell size of cultured MSCs (Cedex cell counter); assay type: cell-based, human; conditions: between days 10-32 of culture
Procedure: Cell size was measured using Cedex Automated Cell Counter (Innovatis). The cells were diluted 1:2 in Trypan Blue (Sigma) and cell size was measured automatically under microscope.
(§1) Mesenchymal stem cells were selected and cultured in the presence of particular growth factors (basic fibroblast growth factor—bFGF, heparin binding epidermal growth factor—HB-EGF, fibroblast growth factor 4—FGF-4 and platelet derived growth factor, homodimer, subunit B, PDGF-BB) in the presence and absence of nicotinamide for three or four passages and the number and size of the cells was calculated.

[2] = system: umbilical cord-derived CD133+ hematopoietic stem cells; assay: Differentiation and proliferation of ex-vivo cultured hematopoietic stem cells (FACS surface markers); assay type: cell-based
Procedure: Umbilical cord-derived hematopoietic stem cells were isolated using CD133 microbeads and CliniMACS® separator (Miltenyi, Inc. Auburn, Calif.), and cultured for 3 weeks in MEMα supplemented with 50 ng/ml TPO, IL6, SCF, Flt3, fetal bovine serum, ±2.5 or 5 mM nicotinamide, and/or 10, 50 or 200 ng/ml FGF4. After 3 weeks in culture the cells were stained for surface markers (CD38, CD133, CD33, CD19) and the cell populations determined by FACS analysis (see below). Results are expressed as percentage of total population assayed.
(§2) At different time points the cells were detached with 0.25% trypsin-EDTA. The cells were washed with a PBS solution containing 1% BSA, and stained (at 4° C. for 30 min) with either fluorescein isothiocyanate (FITC) or phycoerythrin (PE)-conjugated antibodies: 105 PE, 105 FITC (Serotec, Raleigh, N.C.), 45 FITC, 14 FITC, HLA-DR FITC, 106 PE, 31 PE (BD, Franklin Lakes N.J.), 34 PE (Dako, Glostrup, Denmark), 73 PE, HLA class1 PE, 49b PE (Pharmingen, San Diego, Calif.), 29 PE, 44 PE, 54 FITC, 59 PE, 90 PE (BioLegend, San Diego, Calif.). CD133—(AC141) PE (Miltenyi, Auburn, Calif.), CD38 FITC (Dako, Glostrup, Denmark), CD19 FITC (BD Biosciences, Franklin Lakes N.J.), CD33 FITC (BD Bioscience, Franklin Lakes N.J.).
(§3) The cells were then washed in the above buffer and analyzed using a FACScalibur® flow cytometer (Becton Dickinson, Franklin Lakes N.J.). The cells were passed at a rate of up to 1000 cells/second, using a 488 nm argon laser beam as the light source for excitation. Emission of 10000 cells was measured using logarithmic amplification, and analyzed using the CellQuest software (Becton Dickinson). Cells stained with FITC- and PE-conjugated isotype control antibodies were used to determine background fluorescence.
Umbilical cord-derived CD133+ hematopoietic stem cells were isolated and cultured for 3 weeks in medium supplemented with early-acting growth factors and fetal bovine serum, nicotinamide and/or FGF4. After 3 weeks in culture the cells were stained for surface markers (CD38, CD133, CD19) and the cell populations determined by FACS analysis. Cell proliferation was assessed by counting total cells at three weeks.

mesenchymal stem cells [3] = assay: Percent of MSC (CD105+CD45-) by FACS; assay type: cell-based, human; conditions: NAM 5 mM, FGF4 50 ng/ml, PDGF-BB 50 ng/ml
Procedure: as §2, with “CD133—(AC141) PE (Miltenyi, Auburn, Calif.), CD38 FITC (Dako, Glostrup, Denmark), CD19 FITC (BD Biosciences, Franklin Lakes N.J.), CD33 FITC (BD Bioscience, Franklin Lakes N.J.).” left out
as §3, with “The cells were passed at a rate of up to 1000 cells/second, using a 488 nm argon laser beam as the light source for excitation.” left out
as §1

EGF: Epidermal growth factor
increase in the number of colony-forming units of MSCs (MSCs; Tamama et al. 2010): 25%

B1: BMP-3: member of the transforming growth factor beta family (protein, UniProt P12645 363-472, looked up)
Bone morphogenetic protein 3: QWIEPRNCARRYLKVDFADIGWSEWIISPKSFDAYYCSGACQFPMPKSLKPSNHATIQSIVRAVGVVPGIPEPCCVPEKMSSLSILFFDENKNVVLKVYPNMTVESCACR
increase of MSC proliferation (MSCs; Stewart et al. 2010): threefold

B2: FGF4: Fibroblast growth factor 4, the FGF4 gene product, a 176 AA long protein (protein, UniProt P08620 31-206, looked up)
Fibroblast growth factor 4: APTAPNGTLEAELERRWESLVALSLARLPVAAQPKEAAVQSGAGDYLLGIKRLRRLYCNVGIGFHLQALPDGRIGGAHADTRDSLLELSPVERGVVSIFGVASRFFVAMSSKGKLYGSPFFTDECTFKEILLPNNYNAYESYKYPGMFIALSKNGKTKKGNRVSPTMKVTHFLPRL
cell diameter of cultured MSCs (mesenchymal stem cells [1]): greater than 20 μm
degree of differentiation of hematopoietic progenitor cells (CD38 and CD133-expressing fraction) ([2]; 3 weeks culture, nicotinamide 2.5 or 5 mM, FGF4 10 to 200 ng/ml): without any effect on the degree of differentiation; also recorded: neither improved nor reduced
total cell proliferation in hematopoietic cultures ([2]; 3 weeks, FGF4 with or without nicotinamide, results not shown): without any discernible effect
fraction of undifferentiated early progenitors (CD38-CD133+) ([2]; 3 weeks, FIG. 35): absence of any significant effect
differentiation (CD38+ cells) ([2]; 3 weeks, FIG. 36): absence of any significant effect
myeloid lineage differentiation (CD33+ cells) ([2]; 3 weeks, FIG. 37): moderate enhancement
lymphoid lineage differentiation (CD19+ cells) ([2]; 3 weeks, FIG. 38): absence of any significant effect
abundance of committed myeloid or lymphoid cells (CD33, CD19) ([2]; three week cultures): without any effect

B3: PDGF-BB: platelet derived growth factor, homodimer, subunit B (protein, UniProt P01127 82-190, looked up)
Platelet-derived growth …: SLGSLTIAEPAMIAECKTRTEVFEISRRLIDRTNANFLVWPPCVEVQRCSGCCNNRNVQCRPTQVQLRPVQVRKIEIVRKKPIFKKATVTLEDHLACKCETVAAARPVT
fraction of MSC (CD105+CD45-) versus cells other than MSCs in the culture (mesenchymal stem cells [3]): contaminated with a higher fraction of cells other than MSCs
